Columns and labels:
[1] = target: Rb expressed from CMV-Rb in Saos-2 cells (UniProt P06400); assay: co-IP
[2] = target: endogenous Rb of CV-1 cells (African green monkey (endogenous in CV-1)); assay: co-IP
[3] = target: catalytic subunit of protein phosphatase 1 (PP1c), α isoform (human) (UniProt P62136)
[4] = target: catalytic subunit of protein phosphatase 1 (PP1c), α isoform (human, UniProt P62136 1-300); assay: ITC

Sequence of catalytic subunit of protein phosphatase 1 (PP1c), α isoform (human) (P62136 1-300): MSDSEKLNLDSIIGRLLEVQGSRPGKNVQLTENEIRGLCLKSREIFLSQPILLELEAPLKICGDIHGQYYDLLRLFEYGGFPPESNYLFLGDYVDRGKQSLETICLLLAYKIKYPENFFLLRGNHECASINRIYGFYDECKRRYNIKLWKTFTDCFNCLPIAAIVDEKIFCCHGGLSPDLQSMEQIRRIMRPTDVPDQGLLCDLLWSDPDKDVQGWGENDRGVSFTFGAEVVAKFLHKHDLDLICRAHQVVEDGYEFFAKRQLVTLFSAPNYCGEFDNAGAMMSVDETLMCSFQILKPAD

**Q.** “PP1 in transfected Saos-2 cells (exogenous myc-PP1c together with endogenous PP1) (from UniProt P62136 1-330) (enzyme)” was tested. Which PP1 co-precipitated, percent of the immunoprecipitated Rb [1] did it give?
**A.** 30%

**Q.** Which PP1 co-precipitated, percent of the immunoprecipitated Rb [2] does the source give for endogenous PP1 of CV-1 cells (enzyme) here?
**A.** 2%

B1: phosRb^771–928 (domain or fragment)
chain: YASTRPPTLSPIPHIPRSPYKFPSSPLRIPGGNIYISPLKSPYKISEGLPTPTKMTPRSRILVSIGESFGTSEKFQKINQMVCNSDRVLKRSAEGSNPPKPLKKLRFDIEGSDEADGSKHLPGESKFQQKLAEMTSTRTRMQKQKMNDSMDTSNKEEK
**Q.** For B1, which apparent KM of dephosphorylation by PP1c (steady-state analysis) [3] is on record?
**A.** 6 µM

**Q.** With KPLKKLRFDIEGS [Rb^870–882 peptide] as the molecule, how does the Kd [4] read?
**A.** 1200 nM

B2: phosRb^771–874 (domain or fragment)
chain: YASTRPPTLSPIPHIPRSPYKFPSSPLRIPGGNIYISPLKSPYKISEGLPTPTKMTPRSRILVSIGESFGTSEKFQKINQMVCNSDRVLKRSAEGSNPPKPLKK
**Q.** For B2, which apparent KM of dephosphorylation by PP1c (steady-state analysis) [3] is on record?
**A.** 30 µM

Source: article PMC2933323 (Nature structural & molecular biology, 2010)
